# Assay: yeast display, Sf9 membrane polyspecificity reagent, FACS + sequencing; frameworks hold sequencing errors
# Summary of the method: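 Genes from sorted yeast were amplified by colony PCR, read by MiSeq 2 × 250 sequencing and filtered on CDR length. These cells carried a synthetic nanobody library in Saccharomyces cerevisiae BJ5465 and were sorted by FACS into low and high (top ~1%) gates on anti-HA and streptavidin fluorescence. Polyreactivity is labelled according to the gate of origin.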
row,Sequence,polyreactivity (PSR sort gate)
1,QVQLVESGGGLVQAGGSLRLSCAASGRIFSLYAMGWYRQAPGNERELVAAISKRGGSTYYADSVKGRFTISRDNAKNTVYLHMNSLKPEDTAVYYCATQLPFRKPWHDYWGQGTQVTVSS,high polyreactivity
2,QVQLVESGGGLVQAGGSLRLSCAASGRIFSNYAMGWYRQAPGKERELVAAITSGGNTYYADSVKGRFTISRDNAKNTVYLQMNSLKPEDTAVYYCATVFSVQGWYFGMNYWGQGSQVTVSS,low polyreactivity
3,QVQLVESGGGLVQAGGSLRLSCAASGRIFSPSDMGWYRQAPGKERELVAAIRSDGGRTHYADSVKGRFTISRDNAKNTVYLQMNSLKPEDTAVYYCARDNGRTITTTDTYDYWGQGTQVTVSS,low polyreactivity
4,QVQLVESGGGLVQAGGSLRLSCAASGRIFSPSDMGWYRQAPGKERELVAAIRSDGGRTHYADSVKGRFTISRDNAKNTVYLQMNTLKPEDTAVYYCARDNGRTITTTDTYDYWRQGTQVTVSS,low polyreactivity
5,QVQLVESGGGLVQAGGSLRLSCAASGRIFSQNAMGWYRQAPGKERELVAVISRGGSTNYADSVKGRFTISRDNAKNTVYLQMNSLKPEDTAVYYCAADYAYIRSVWKWFIGDYWGQGTQVTVSS,low polyreactivity
6,QVQLVESGGGLVQAGGSLRLSCAASGRIFSQYAMGWYRQAPGKERELVAAISRRTGSTYYADSVKGRFTISRDNAKNTVYLQMNSLKPEDTAVYYCAAASKPWYYYWGQGTQVTVSS,high polyreactivity
7,QVQLVESGGGLVQAGGSLRLSCAASGRIFSQYAMGWYRQAPGKERELVAAISSRGGRTYYADSVKGRFTISRDNAKNTVYLQMNSLKPEDTAVYYCAAVIRSRYSYYEYDYWGQGTQVTVSS,high polyreactivity
8,QVQLVESGGGLVQAGGSLRLSCAASGRIFSRKTMGWYRQAPGKEREFVAAISQSGGRTYYADSVKGRFTISRDNAKNTVYLQMNSLKPEDTAVYYCNAQFARSSGFNYWGQGTQVTVSS,high polyreactivity
9,QVQLVESGGGLVQAGGSLRLSCAASGRIFSRNAMGWYIQAPGKERELVAAISRSGTSTYYADSVKGRFTISRDNAKYTVYLQMNSLKPEDTAVYYCAADYPAVISIRRYDYWGQGTQVTVSS,low polyreactivity
10,QVQLVESGGGLVQAGGSLRLSCAASGRIFSRNAMGWYRQAPGKERELVAAISRSGTSTYYADSVKGRFTISRDNAKNTVYLQMNSLKPEDTAVYYCAADYPAVISIRRYDYWGQGTQVTVSS,low polyreactivity
11,QVQLVESGGGLVQAGGSLRLSCAASGRIFSRNAMGWYRQAPGKERELVAAITSGGSTYYADSVKGRFTISRDNAKNTVYLQMNSLKPEDTAVYYCAKRLTYYSWYHLYDYWGQGTQVTVSS,high polyreactivity
12,QVQLVESGGGLVQAGGSLRLSCAASGRIFSRYAMGWYRQAPGKERELVAAITQSGTSTYYADSVKGRFTISRDNAKNTVYLQMNSLKPEDTAVYYCAAAKHSWRPSYYWGGYWGQGTQVTVSS,low polyreactivity
13,QVQLVESGGGLVQAGGSLRLSCAASGRIFSRYAMGWYRQAPGKERELVAAITRGGSTYADSVKGRFTISRDNAKNTVYLQMNSLKPEDTAVYYCATPIYSSYYRYSSGYGYDYWGQGTQVTVSS,high polyreactivity
14,QVQLVESGGGLVQAGGSLRLSCAASGRIFSRYAMGWYRQAPGKERELVATITRRGGSTSYADSVKGRFTISRDNAKNTVYLHMNSLKPEDTAVYYCAAQSFYGIYYGQQDYDYWGQGTQVTVSS,high polyreactivity
15,QVQLVESGGGLVQAGGSLRLSCAASGRIFSRYAMGWYTQAPGKERELVAAITQSGTSTYDADSVKGRFTISRDNAKNTVYLQMNSLKPEDTAVYFCNAYRQYRYDYWGQGTQVTVSS,low polyreactivity
16,QVQLVESGGGLVQAGGSLRLSCAASGRIFSRYGMGWYRQAPGKERELVAGISSSGGSTYYADSVKGRFTISRDNAKNTVYLQMNSLKPEDTAVYYCAADDGFYGPDLDYRGQGTQVTVSS,low polyreactivity
17,QVQLVESGGGLVQAGGSLRLSCAASGRIFSRYVMGWYRQAPGKERELVAAISGRATSTYYADSVKGRFTISRDNAKNTVYLQMNSLKPEDTAVYYCATGYKTYAVTLYDYWGQGTQVTVSS,high polyreactivity
18,QVQLVESGGGLVQAGGSLRLSCAASGRIFSSNAMGWYRKAPGKEREFVAAINESGGITFYADSVKGRFTISRDNAKNTVYLQLNSLIPEDTAVYYCAKRDYSPWPADGYPYDYDYWGQGTQVTVSS,low polyreactivity
19,QVQLVESGGGLVQAGGSLRLSCAASGRIFSSYAKGWYRQAPGKERELVAAISRGGGRTYYADSVKGRFTISRDNAKNTVYLQMNSLKPEDTAVYYCATVGRSAAYAFDYWGQGTQVTVSS,high polyreactivity
20,QVQLVESGGGLVQAGGSLRLSCAASGRIFSSYAMGWYRQAPGKERELVAAISSRGGSTYYADSVKGRFTIARDNAKNTVYLQMNSLKPEDTAVYYCARVKYSGVVYKYDYWGQGTQVTVSS,high polyreactivity
21,QVQLVESGGGLVQAGGSLRLSCAASGRIFSSYAMGWYRQAPGKERELVAAITRGGSTYYADSVKGRFTISRDNAKNTVYLQMNSLKPEDTAVYYCNAVGFYAANTFDYWGQGTQVTVSS,high polyreactivity
22,QVQLVESGGGLVQAGGSLRLSCAASGRIFSSYVMGWYRQAPGKERELVAAIRWSGGSTYYADSVKGRFTISRDNAKNTVYLQMNSLKPEDTAVYYCAARHVLYGYYLYDYWGQGTQVTVSS,high polyreactivity

row,Sequence,polyreactivity (PSR sort gate)
1,QVQLVESGGGLVQAGGSLRLSCAASGRIFSTNAMGWYRQAPGKEWELVAAITRGVSTKYADSVKGRFTISRDNAKNTVYLQMNSLKPEDTAVYYCAARVVWGPESDYWGQGTQVTVSS,low polyreactivity
2,QVQLVESGGGLVQAGGSLRLSCAASGRIFSTYAMGWYRQAPGKERELVAAINKIGGSTYYADSVKGRFTISRDNAKNTDYLQMNSLKPEDSAVYYCAADAPYYPVRRYYYWGQGTQVTVSS,low polyreactivity
3,QVQLVESGGGLVQAGGSLRLSCAASGRIFSVNAMGWYRQAPGTEREFVAAISWSGSSTYYADSVKGRFTSSRDNAKITVYLQMNSLKPEDTAVYYCNADIDFGTREVYYWGQGTQVTVSS,low polyreactivity
4,QVQLVESGGGLVQAGGSLRLSCAASGRIFSVYAMGWYRQAPGKEREFVASISWRGGRTYYADSVKGRFTISRDNAKNTFYLQMNSLKPEDTAVYYCAAVSYPAVYGFDYWGQGTQVTVSS,high polyreactivity
5,QVQLVESGGGLVQAGGSLRLSCAASGRIFSVYGMGWYRQAPGKERELVAAMSSSAGSTNYADSVKGRFTISRDNAKNTVYLQMISLKPEDTAVYYCAAYYRRVVYYPTAYYIRKYDYWGQGSQVTVSS,high polyreactivity
6,QVQLVESGGGLVQAGGSLRLSCAASGRIFSWNTMGWYRQAPGKERELVAAISSSDGSTYYADSVKGRFTISRDNAKNTVYLQMNSVKPEDTAVYYCNKVVSRWNQRWRYSEGNYWGQGTQVTVSS,high polyreactivity
7,QVQLVESGGGLVQAGGSLRLSCAASGRIFSWYAMGWYRQAPGKERELVAAISASGSSTYYADSVKGRFTISRDNAKNTVYLQMNSLKPEDTAVYYCNTVSAYYARRSEGYDYWGQGTQVTVSS,high polyreactivity
8,QVQLVESGGGLVQAGGSLRLSCAASGRIFSWYAMGWYRQAPGKERELVAAITVRGSTYYADSVKGRFTISRDNAKNTVYLQMNSLKPEDTAVYYCAAKSSRYAYDYWGQGTQVTVSS,low polyreactivity
9,QVQLVESGGGLVQAGGSLRLSCAASGRIFSWYAMGWYRQAPGKERELVARITTRGGNTYYADSVKGRFTFSRDNAKNTVYLQMNSLKPEVTAVYYCAARHPYPIYDYWGQGTQVSVSS,low polyreactivity
10,QVQLVESGGGLVQAGGSLRLSCAASGRIFSYFAMGWYRQAPGKEWELVAASSGNGGSTYYADSVKGRFTISRDNAKNTVYLHMNSLKPEDTAVYYCAADWRSSDWAYLYPYSYDDWGQGTQVTVSS,low polyreactivity
11,QVQLVESGGGLVQAGGSLRLSCAASGRIFSYNAMGWYRQAPGKERELVAAISSDGSTYYADSVKGRFTISRDNAKNTVYLQMNSLKPVDTAVYYCAARQVVWFDYTTAQVGSYKVNYWGQGTQVTVSS,low polyreactivity
12,QVQLVESGGGLVQAGGSLRLSCAASGRIFSYNAMGWYRQAPGKERELVAAISTGTSTYYADSVKGRFTISGDNAKNTVYLQMNSLKPEDTAVYYCAVDAYYWYQWYDYWGQGTQVTVSS,low polyreactivity
13,QVQLVESGGGLVQAGGSLRLSCAASGRIFSYNAMGWYRQAPGKERELVAAITFSGGGTYYADSVKGRFTISRDNAKYTVYLQMNSLKPEDTAVYYCNKVSYGYSTYGYWGQGTQVTVSS,low polyreactivity
14,QVQLVESGGGLVQAGGSLRLSCAASGRIFSYNAMGWYRQAPGKERELVAPINTSGGSTYYADSVKGRFTISRDNAKNTVYLHMNSLKPEDTAVYYCNATLPVYWPYYYYQGGDDDWGQGTQVTVSS,low polyreactivity
15,QVQLVESGGGLVQAGGSLRLSCAASGRIFSYNAMGWYRQAPGKERELVARINWSSGRTYYADSVKGRFTISRDNAKNTVYLQMNSLKPEDTAVYYCNRVSRGPVGGYYWGQGTQVTVSS,high polyreactivity
16,QVQLVESGGGLVQAGGSLRLSCAASGRIFSYNAMGWYRQEPGKERELVASITSGGGRTYYADSVKGRFTISRDYAKNTVYLQMNSLKPVDTAVYYCAADGEVKYDYWGQGTQVTVSS,low polyreactivity
17,QVQLVESGGGLVQAGGSLRLSCAASGRIFSYNDMGWYRQAPGKERELVAAISWNSGRTYYADSVKGRFTISRDNAKNTVYLQMNSLKPEDTAVYYCNAPYWKSRFRAYYHWGQGTQVTVSS,high polyreactivity
18,QVQLVESGGGLVQAGGSLRLSCAASGRIFSYYAMGWYRQAPGKERELVAAISNGGNTYYADSVKGRFTISRDNAKNTVYLQMNSLKPEDTAVYYCYVRRYDYWGQGTQVTVSS,high polyreactivity
19,QVQLVESGGGLVQAGGSLRLSCAASGRIFSYYAMGWYRQAPGKERELVAAITSAGGTNYADSVKGRFTISRDNAKNTVYLQMNSLNPEDTAVYYCAAAKRDFVEYDYWGQGTQVTVSS,low polyreactivity
20,QVQLVESGGGLVQAGGSLRLSCAASGRIFSYYAMGWYRQAPGKERELVAVISRRGDNTYYADSVKGRFTISRDNAKNTVYLQMNSLKPEDTAVYYCAVQFVFIFYYGYDYWGQGTQVTVSS,high polyreactivity
21,QVQLVESGGGLVQAGGSLRLSCAASGRIFSYYDIGWYRQAPGKERELVAAITGGGRTIYADSVKGRFTISRDNAKNTVYLQMNILKTEDTAVYYCNARARSRKFYYWGQGTQVTVSS,high polyreactivity
